# In IntAct's records for PubMed 28712572:
# Target: gbrap_human GABARAP (UniProt O95166)
# Sequence (O95166 whole entry): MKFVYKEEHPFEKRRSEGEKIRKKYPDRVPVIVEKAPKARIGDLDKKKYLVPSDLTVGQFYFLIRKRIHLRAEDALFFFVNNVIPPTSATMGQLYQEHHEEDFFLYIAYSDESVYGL
row,effect of a mutation on the interaction,Substance
1,with no effect,"Pericentriolar material 1 protein (Homo sapiens), Q15154 D1959A"
2,with no effect,"Pericentriolar material 1 protein (Homo sapiens), Q15154 D1959C"
3,with no effect,"Pericentriolar material 1 protein (Homo sapiens), Q15154 D1959E"
4,with no effect,"Pericentriolar material 1 protein (Homo sapiens), Q15154 D1959F"
5,with no effect,"Pericentriolar material 1 protein (Homo sapiens), Q15154 D1959G"
6,with no effect,"Pericentriolar material 1 protein (Homo sapiens), Q15154 D1959H"
7,with no effect,"Pericentriolar material 1 protein (Homo sapiens), Q15154 D1959I"
8,decreasing interaction strength,"Pericentriolar material 1 protein (Homo sapiens), Q15154 D1959K"
9,with no effect,"Pericentriolar material 1 protein (Homo sapiens), Q15154 D1959L"
10,with no effect,"Pericentriolar material 1 protein (Homo sapiens), Q15154 D1959M"
11,with no effect,"Pericentriolar material 1 protein (Homo sapiens), Q15154 D1959N"
12,with no effect,"Pericentriolar material 1 protein (Homo sapiens), Q15154 D1959P"
13,with no effect,"Pericentriolar material 1 protein (Homo sapiens), Q15154 D1959Q"
14,with no effect,"Pericentriolar material 1 protein (Homo sapiens), Q15154 D1959R"
15,with no effect,"Pericentriolar material 1 protein (Homo sapiens), Q15154 D1959S"
16,with no effect,"Pericentriolar material 1 protein (Homo sapiens), Q15154 D1959T"
17,decreasing interaction strength,"Pericentriolar material 1 protein (Homo sapiens), Q15154 D1959V"
18,with no effect,"Pericentriolar material 1 protein (Homo sapiens), Q15154 D1959W"
19,with no effect,"Pericentriolar material 1 protein (Homo sapiens), Q15154 D1959Y"
20,with no effect,"Pericentriolar material 1 protein (Homo sapiens), Q15154 D1962A"
21,with no effect,"Pericentriolar material 1 protein (Homo sapiens), Q15154 D1962C"
22,with no effect,"Pericentriolar material 1 protein (Homo sapiens), Q15154 D1962E"
23,with no effect,"Pericentriolar material 1 protein (Homo sapiens), Q15154 D1962F"

row,effect of a mutation on the interaction,Substance
1,with no effect,"Pericentriolar material 1 protein (Homo sapiens), Q15154 D1962G"
2,decreasing interaction strength,"Pericentriolar material 1 protein (Homo sapiens), Q15154 D1962H"
3,disrupting interaction strength,"Pericentriolar material 1 protein (Homo sapiens), Q15154 D1962I"
4,disrupting interaction strength,"Pericentriolar material 1 protein (Homo sapiens), Q15154 D1962K"
5,disrupting interaction strength,"Pericentriolar material 1 protein (Homo sapiens), Q15154 D1962L"
6,decreasing interaction strength,"Pericentriolar material 1 protein (Homo sapiens), Q15154 D1962M"
7,decreasing interaction strength,"Pericentriolar material 1 protein (Homo sapiens), Q15154 D1962N"
8,disrupting interaction strength,"Pericentriolar material 1 protein (Homo sapiens), Q15154 D1962P"
9,decreasing interaction strength,"Pericentriolar material 1 protein (Homo sapiens), Q15154 D1962Q"
10,decreasing interaction strength,"Pericentriolar material 1 protein (Homo sapiens), Q15154 D1962R"
11,with no effect,"Pericentriolar material 1 protein (Homo sapiens), Q15154 D1962S"
12,with no effect,"Pericentriolar material 1 protein (Homo sapiens), Q15154 D1962T"
13,disrupting interaction strength,"Pericentriolar material 1 protein (Homo sapiens), Q15154 D1962V"
14,with no effect,"Pericentriolar material 1 protein (Homo sapiens), Q15154 D1962W"
15,disrupting interaction strength,"Pericentriolar material 1 protein (Homo sapiens), Q15154 D1962Y"
16,with no effect,"Pericentriolar material 1 protein (Homo sapiens), Q15154 D1968A"
17,with no effect,"Pericentriolar material 1 protein (Homo sapiens), Q15154 D1968C"
18,with no effect,"Pericentriolar material 1 protein (Homo sapiens), Q15154 D1968E"
19,with no effect,"Pericentriolar material 1 protein (Homo sapiens), Q15154 D1968F"
20,with no effect,"Pericentriolar material 1 protein (Homo sapiens), Q15154 D1968G"
21,with no effect,"Pericentriolar material 1 protein (Homo sapiens), Q15154 D1968H"
22,with no effect,"Pericentriolar material 1 protein (Homo sapiens), Q15154 D1968I"
23,with no effect,"Pericentriolar material 1 protein (Homo sapiens), Q15154 D1968K"

row,effect of a mutation on the interaction,Substance
1,with no effect,"Pericentriolar material 1 protein (Homo sapiens), Q15154 D1968L"
2,with no effect,"Pericentriolar material 1 protein (Homo sapiens), Q15154 D1968M"
3,with no effect,"Pericentriolar material 1 protein (Homo sapiens), Q15154 D1968N"
4,with no effect,"Pericentriolar material 1 protein (Homo sapiens), Q15154 D1968P"
5,with no effect,"Pericentriolar material 1 protein (Homo sapiens), Q15154 D1968Q"
6,with no effect,"Pericentriolar material 1 protein (Homo sapiens), Q15154 D1968R"
7,with no effect,"Pericentriolar material 1 protein (Homo sapiens), Q15154 D1968S"
8,with no effect,"Pericentriolar material 1 protein (Homo sapiens), Q15154 D1968T"
9,with no effect,"Pericentriolar material 1 protein (Homo sapiens), Q15154 D1968V"
10,with no effect,"Pericentriolar material 1 protein (Homo sapiens), Q15154 D1968W"
11,with no effect,"Pericentriolar material 1 protein (Homo sapiens), Q15154 D1968Y"
12,with no effect,"Pericentriolar material 1 protein (Homo sapiens), Q15154 E1960A"
13,with no effect,"Pericentriolar material 1 protein (Homo sapiens), Q15154 E1960C"
14,with no effect,"Pericentriolar material 1 protein (Homo sapiens), Q15154 E1960D"
15,with no effect,"Pericentriolar material 1 protein (Homo sapiens), Q15154 E1960F"
16,with no effect,"Pericentriolar material 1 protein (Homo sapiens), Q15154 E1960G"
17,with no effect,"Pericentriolar material 1 protein (Homo sapiens), Q15154 E1960H"
18,with no effect,"Pericentriolar material 1 protein (Homo sapiens), Q15154 E1960I"
19,decreasing interaction strength,"Pericentriolar material 1 protein (Homo sapiens), Q15154 E1960K"
20,with no effect,"Pericentriolar material 1 protein (Homo sapiens), Q15154 E1960L"
21,decreasing interaction strength,"Pericentriolar material 1 protein (Homo sapiens), Q15154 E1960M"
22,with no effect,"Pericentriolar material 1 protein (Homo sapiens), Q15154 E1960N"
23,with no effect,"Pericentriolar material 1 protein (Homo sapiens), Q15154 E1960P"
